The nature of this series: soluble on expression in E. coli; label from the status in PepcDB or PDB records.
As to “MGSDKIHHHHHHMLKELHLQQVGPAAHFDVAFADRLNIFTGDNGLGKSFLLDIAWWVMTTNWAEQPAYPQRVKGENPQITAVVSNKKNIREYQSQFDFSEQQWRNLQMPPLLKEVVIYVRVDGSFSIFDPARQRDIAYNFNPNTLWNGLKSKDKVICNGLIQDWVTWQNQPNKYPFELFSNVIKKLAPHPSEWIEVGETTRVSIEDVRDIPTVNLPYGNVPVTQTSAGMKRILGLAYLLVWTWYEHKKASELRQQKPVNQIVLLIDEIESHLHPRWQRVILPAILSVVTELQPRMKIQALVTTHSPLILASLEPNFHEQEDKLFLFKLQDSEVSLDEVPWSKQGDIVGWLTSDIFGLKQARSKEAEIAIEAAEAWMRDDDMNTFPENLRISTQIHQELQRVLPGHDPFWPRWIVTTEKRNSGLSGV”, the “soluble on expression in E. coli” value was “not soluble”.
With “MSTTAYQPIAECGATTQSEAAAYQKRWLVANDAGQWLNRDLCPRLAEVSVELRMGYLVLKAPGMLRLDIPLDVIEDDDSVRYQMLVGEQTVDVVDEGELAAAWISNHAGVPCRILKVHPDMAEVRWPSLEHHHHHH” the entry was “soluble”.
With “MKFAIFVNTTREKALELARELTAWLDARSIDYVFDPQSAKALGCGKWEEKADLSQHCDAFVALGGDGTLLLASHYSRSKPVVGINVGDLGFLTEFSPDEMWVAMDHLVSGNYSIHTRSQLEATLESGESLTSLNDVIFEKGSAARRLPAFTILLDDEMLGSYRADGIIIATSTGSTAYSMSAGGPIIAPKSNVFVITPICPHMLTVRPIVISDDKTIKISVDSQSGEFPLKMDGIQKKLLAPGEVVTVKKSPHHINLVANEKRNYCEILRKKLLWSHEHPTGELEHHHHHH” the entry was “not soluble”; with “MGSDKIHHHHHHMGHQEFMSQEEVDALLKGVTGETDTVDEQRDLSSVRPYNIATQERIVRGRMPGLEIINDRFARLLRIGIFNFMRRTAEISVSQVKVQKYSEFTRNLPIPTNLNLVHVKPLRGTSLFVFDPNLVFFVVDNLFGGDGRFHTRVEGRDFTATEQRIIGKLLNLVFEHYATAWKSVRPLQFEFVRSEMHTQFANVATPNEIVIVTQFSIEFGPTGGTLHICMPYSMIEPIRDVLSSPIQGEALEVDRRWVRVLSQQVQSAEVELSANLAEIPSTFEKILNLRAGDVLPLEIEDTITAKVDGVPVMECGYGIFNGQYALRVQKMISASDTMKEGGYE”, “not soluble”.
Consider “MGSDKIHHHHHHMSVEQTYSWLRKAGSIDDLAHYIIPLFSGAEKKNWKGILGHLQHHGMFKNIKEGIQTVSKLKEKGFYGHIQKEEQYLKNKWQGPDVPIVTLPVDERNRRIRLEFGSKSGLAFQDKMFLFLSSDLDFGSVSALMTHEYHHVCRLGHLTKEEKDVTLLDTIIMEGLAEYAVYERFGRSQTAEWTTWYTPEQLQALYEKKIAPHRDIKRDNRLFPQLLFGKGYQPKMLGYAVGFNIVKKYLTASKASTADGLSIPAETFLDAML”, for which the “soluble on expression in E. coli” value is “not soluble”.
As to “MLIDKTIILSVAFFTSSVFGQTSDKDFLKKPHVLPSAEAAYHAVYHELDSVKSGNRDEKVFGQLYVALIEDQFTFGGDLSTWPDSAFQKGDRGCKPFMAANLHNLCNNEYFLVHQDMIKLVKTVFERKNQADPSFDTICLANNGFVVSDDPENHLVYRYKHRIPMTYKATSNDQKCFGTYDTRTDTFTCMRYDASTKKMSPFELQNFLWKENTGTFHLGNGNAEVFCKKPFYTNK”, the “soluble on expression in E. coli” value was “not soluble”.
For the sequence “MAGDPMLKGRQTWEFENRPVILSSAATAGPFEANGPLADDFDILFEDMWLGEDSFEKAQKVLIEEAAKTAIEKAGIQNDDIQFVFAGDLLNQMTSTSFACRSLCIPYFGLFGACSTSMEGLALAAFVINHSGANYVLTGSTSHNAAIEKQFRYPTEYGAQKPPTAQWTATAAGVGVVAKVGSGPVVTSATIGKVVDMGLSDPFNMGEAMAPAAADTIEMHFQERGVGPDYYDLIATGDLGKIGLPIVKEMLEQKGYSFNDGQLNDCGLMIYRDGQPVLAGGSGSGCSASVTYGHLLNRMKKGEINRMLIVATGALLSPMSYQQNETIPCIAHAVSIEAGGALALEHHHHHH”, the “soluble on expression in E. coli” value is recorded as “not soluble”.
With “MAHHHHHHMPRDTHVLRFKVLTVECAALPDGQQYTVMYHRGNSNRSTPCYTAQGGVINFASMPEGAAVVHFKAGHGGGRFAPKYIRFMIEEYTRGMPRRLVGETEADCTQVLKDYGASGSGILTVVFRLYGTTAKMRIAVLVYPEHAPPLSFDGLIDPSEVAAPLPTQAVKVMSRGEAMMILMGLETLLERRRAMKAEGQSLPQSREEKKLAELEKRRKALVGSEGLATEVIKTRCEEVVAVQYTALARKHRNNFIGQTAAYLREMAMLAGEDFIGDDGDSSGDTVLEQLNRVNRSIEEVEMQVKKLEEEQAALRRIQHKVDVMAELTVSLDKVAALQQKMQVLKESRTALTEAMKKQAAKKNTPLAREVTAINTRIAALNAEQQQMAPRIQHMVAVAASHVVKWARSKNPPELDTKSCIDSLHETGGNARNPVDDLFSDAGKPKTSKEQSMLDDVQRKQVVEALKGLETTTAPLSTRSPTSASSSSGHRTPRDLFADAGLPSMGDFSDTKPKEEETATKRKGDTSTTPLHEDPLKPSGLGVDMFSAKPAPAAASNVPAGLPSMNDFMRSSTASRQQSAQPTFDFGSILQTSSVSPQMGGGFVLEPQPSEAAASSFAAAAPSAVSGAYQTKDYPYYDEMDDFTVPPDAADSKNYGAVEITGGIFSFQDDTSSPAYVAPRPTFDFGPSSGGDDRPSGVGVTVSPAETFSFGGGAADELSTNNPRNSSDNPYTGITNLPTYNFSS” the entry was “soluble”.
Consider “MTISTNHSLASRQQLKQGKPFSILVLGTDVGALGRGTSYAGNTDTLELITVNPKKHTLTTTAIPRDTLVRVETKNKIEYTKINAAYALGGPREIKKQVHELLDVPVDYYALVNMGGLEKTVNAVGGVTVNNPFAFKYEGHTYPKGKQYLNGSEALGYSRMRYDDPDNDYGRQKRGQQVLLSALTKVNKSKNIMQMNSLLDTAKDNVRTDLPLDDLMTLYKNYHGALADTQSDHLQGKNATIDNFSFQIAPNWEMQRLSDNTRQALGLTKVKVNNIQTKMNDMQTNWNGYNNVNYVLPNNAQVYIPVNKVLEHHHHHH”, for which the “soluble on expression in E. coli” value is reported as “soluble”.
As to “MGSDKIHHHHHHMQSQELERIARQIRLRDVQAVFEAGAGHVGGEMSAIDIMTALYFRVLRIWPNDPKNPARDRFVLSKGHTACALYVTLAKRGFIPEEEISTFLQPNSRLNGHPNCNKVPGVETNTGPLGHGLPVAVGMATAAKLSGEDYHTYVMTGDGEMQEGSNWEAIMSAAQFKLNNLTLVIDHNRFQQGAAIADTNDVAPLRPKLEAFGWEVTEINGNAMAEVVPALEHRGNRPHCIVAHTNKGHGISFMQDRVDWHHKVPSKEQYEIAVKELSEAL”, the “soluble on expression in E. coli” value is reported as “not soluble”.
For “GALVPRGSHMADPSLNNPVVIQATRLDASILPRNVFSKSYLLYVIAQGTDVGAIAGKANEAGQGAYDAQVKNDEQDVELADHEARIKQLRIDVDDHESRITANTKAITALNVRVTTAEGEIASLQTNVSALDGRVTTAENNISALQADYVSKTATTSQSLASPLNVTTSYSVGGKKVVGARQTGWTAATGTANKGVFDADLTFAVSDTYTQSEIQAIANALITERRRTKAMEDALRAHGLID”, the “soluble on expression in E. coli” value is on record as “soluble”.
With “MGSDKIHHHHHHMFKSTDNYIASNELTLAVNAAIALEKPLLIKGEPGTGKTQLAEELARSLNCKLYQWHIKSTTKAQQGLYEYDAVSRLRDSQLGDARVHDIGNYIVKGKLWQAFEEDQRSILLIDEIDKADIEFPNDLLQELDKMEFYVYETQQVIKAKQRPIIIITSNNEKELPDAFLRRCFFHYIKFPTKDEMAKIIDVHHPNVKQDLLQQALEVFFDLRDVNGIKKKPSTSELIDWLKLLISDDISQDTLLDKKSDIIPLFGALLKNEQDVSLIEKLAFMSRRNR” the entry was “not soluble”.
Regarding “MRLRHKPYAMDRINEYSHIVIGNPEERAGSWKEVFGNEQPIHIEVGTGRGRFMYDMAKANPHINYIGIEKFTSVVVDALDKLIEEELPNLKLINKDAEDLTVFFAKGEIDRVYLNFSDPWPKKRHTKRRLTYKTFLRNYEEVLVEGGEIHFKTDNQGLFEYSLMSMAEYGMLLTYLSLDLHNSDFEGNIMTEYEEKFSSKGHRIYRVEAKYRTEPMQ”, the “soluble on expression in E. coli” value is recorded as “not soluble”.
In the case of “MAEPKWPSSAKTLPFKFMKEARNPCTRAQKLCSTHRRAAAPPSFSVHLTQKSENSSSEESDHQFASPTSPRPSSSDSFGPSAAPSTSLSPPFLSPSYSMDYIIEAMTSSSSTSPVPPPVSASRPVAPVVARVEGLRAVPVGHRRQHSSPGHLQQFQQELHARHHHANITRLNKKRRNTDTGYDPEARPPKFKHRSPLDEETILVSKTFAIPKYRKGALPAAAAAVVRNEALMDSSDSSDSQSTVKSLDGWRTRTSRSIMTTPEAFSRVRHISITFGEQQHDIDTDHSNQHFGSPSSLHSSLPRAFSPPHKISKARRRQLAVTTSLSETSAFPIPSSLKARSRMSSMSSTQADDEHPISMQNMRNIALGILVPIKQRFFLMQHIPLIEAEMSRFESRVVTAALHPSTFLQNISKSWEELTETVCQLHNAPRLRHPYWLALNEKCHLDGRTLATEFCEQLAYLVRRYDRKEAGYFLSNLVTALLMHHMSWVASVASPPLHNADSKDQIDENSLFGMMSSGAPTVGYNALMAQYLEISGACGNMRSAKICVVGEDLEVLASVCSVLSFFIRCSAVQHVDNDKMWEVPTEQPFSPCDVSNSPSTSCAHQHQQQQQLKNGYQHPEETSSVAMMRRLRNNNQMDTSSTPSTSTAAALLDADVEMVVQTTTEITSTTTTTPRHHHLHHLHSVTIDRLDFPCCPTIADDADMWVPQRPNSEGLGRSMFAGPLNNYCSHFVLSAVQKTDTNMPEVYSRMFDEVRCTDFPCHRSATATPSQSTSSMCDPAMNPENVLIIADIEQLTVKVLSTEGSDEVTSPSESIVAMLEQFVGIHNAVPANAEFLVGIIEDSLAHIVGKSLTLVELVRSDQTVRIQGSERAKKSKILAKIEILLAVCPEIGNFSKFEFPSYRALK”, the “soluble on expression in E. coli” value was “not soluble”.
For “MSWTVDIPKEALPDLPPLPDGLQQQFENVIARDAKQQPSWDKATAETVRKILESVPPIVVAPEVRELKQHLADVANGRAFLLQGGDCAETFESNTEPHIRANIKTLLQMAVVLTYGASTPVVKMARIAGQYAKPRSSDLDANGLPNYRGDIVNGVEATEEARRHDPARMIRAYANSSAASNLVRALTSSGTADLHRLTGWNREFVASSPAGARYEALAQEIERGLRFMSACGVNDHTLHSADIFCSHEALVVDYERAMLRLAEDEEGNVELYDLSAHQLWIGERTRGLDDFHVNFAAMIANPIGIKIGPTATPEEVVAYANKLDPNFVPGRLTIVARMGHDKVRDVLPGIVKAVEESGHKVIWQSDPMHGNTFTSSNGYKTRHFDKVIDEVQGFFEVHRALGTHPGGIHIEFTGENVTECLGGAEDITDVDLPGRYESACDPRLNTQQSLELSFLVAEMLRN”, the “soluble on expression in E. coli” value was “not soluble”.
Turning to “MGSDKIHHHHHHMRNEYFFRVAGLTFSVILPGGLDAETLLPSFRPFRCGECPEGERIFRLLADTRPFADDGKRAELLDESSNDMGHVCLLRIPGGYRTEISYGPMDGGAHLMTVDTAFDDATAFLRVEDPSMGEVLSSMLRILYAQAALGRDAVSVHASCVSLKGRGYLFLGKSGTGKSTHSRQWLEAFPDCRLLNDDNPVLRIEDGMVSVYGTPWSGKTPCYRNERRPVAGIVRLQQSGTNRFTPLEGPEAFAALLPSCSAIRQDIRLHDELCRILIRVTEQVPVGRLECLPDREAAWLCFESLYVRDAKAREVRDGLPENGGL”, the “soluble on expression in E. coli” value is “not soluble”.
Take “MGSDKIHHHHHHMTSALSEAGGYPPEGQGAYFLCDIFDAMPKNDLASMEHPLFSLSTRPDRRILNYEHNGAEITVTPSVKGLATIHDKDILIFCVSQLMAALNAGRQVSRVLHLTAHDLLVACNRETSGDAYRRLRESFERLAGTRITTNITTGGQEITTGFGLIESWEIVRKARGGRMVSVAVTLSDWLYRAVLSKSVLTLSRDYFRLRKPLERRIYELARKHCGRQDSWQISVETLLKKSGSASPRRVFRKMVRDMIESQPLPDYEMAELEGDIIRFSQKAAVVDVPPPVISEAARDEARRLMPGVDVHALEADWRATWARTGAPRLRKPDAAFVGWVRKRMND”: the “soluble on expression in E. coli” value is listed as “not soluble”.
